Data: paper PMC2933840

Target: Flag-Lrp4-mCherry (mouse) (UniProt Q8VI56)
Experiment: flow cytometry on cells

UniProt Q8VI56, sequence (Q8VI56 21-1905): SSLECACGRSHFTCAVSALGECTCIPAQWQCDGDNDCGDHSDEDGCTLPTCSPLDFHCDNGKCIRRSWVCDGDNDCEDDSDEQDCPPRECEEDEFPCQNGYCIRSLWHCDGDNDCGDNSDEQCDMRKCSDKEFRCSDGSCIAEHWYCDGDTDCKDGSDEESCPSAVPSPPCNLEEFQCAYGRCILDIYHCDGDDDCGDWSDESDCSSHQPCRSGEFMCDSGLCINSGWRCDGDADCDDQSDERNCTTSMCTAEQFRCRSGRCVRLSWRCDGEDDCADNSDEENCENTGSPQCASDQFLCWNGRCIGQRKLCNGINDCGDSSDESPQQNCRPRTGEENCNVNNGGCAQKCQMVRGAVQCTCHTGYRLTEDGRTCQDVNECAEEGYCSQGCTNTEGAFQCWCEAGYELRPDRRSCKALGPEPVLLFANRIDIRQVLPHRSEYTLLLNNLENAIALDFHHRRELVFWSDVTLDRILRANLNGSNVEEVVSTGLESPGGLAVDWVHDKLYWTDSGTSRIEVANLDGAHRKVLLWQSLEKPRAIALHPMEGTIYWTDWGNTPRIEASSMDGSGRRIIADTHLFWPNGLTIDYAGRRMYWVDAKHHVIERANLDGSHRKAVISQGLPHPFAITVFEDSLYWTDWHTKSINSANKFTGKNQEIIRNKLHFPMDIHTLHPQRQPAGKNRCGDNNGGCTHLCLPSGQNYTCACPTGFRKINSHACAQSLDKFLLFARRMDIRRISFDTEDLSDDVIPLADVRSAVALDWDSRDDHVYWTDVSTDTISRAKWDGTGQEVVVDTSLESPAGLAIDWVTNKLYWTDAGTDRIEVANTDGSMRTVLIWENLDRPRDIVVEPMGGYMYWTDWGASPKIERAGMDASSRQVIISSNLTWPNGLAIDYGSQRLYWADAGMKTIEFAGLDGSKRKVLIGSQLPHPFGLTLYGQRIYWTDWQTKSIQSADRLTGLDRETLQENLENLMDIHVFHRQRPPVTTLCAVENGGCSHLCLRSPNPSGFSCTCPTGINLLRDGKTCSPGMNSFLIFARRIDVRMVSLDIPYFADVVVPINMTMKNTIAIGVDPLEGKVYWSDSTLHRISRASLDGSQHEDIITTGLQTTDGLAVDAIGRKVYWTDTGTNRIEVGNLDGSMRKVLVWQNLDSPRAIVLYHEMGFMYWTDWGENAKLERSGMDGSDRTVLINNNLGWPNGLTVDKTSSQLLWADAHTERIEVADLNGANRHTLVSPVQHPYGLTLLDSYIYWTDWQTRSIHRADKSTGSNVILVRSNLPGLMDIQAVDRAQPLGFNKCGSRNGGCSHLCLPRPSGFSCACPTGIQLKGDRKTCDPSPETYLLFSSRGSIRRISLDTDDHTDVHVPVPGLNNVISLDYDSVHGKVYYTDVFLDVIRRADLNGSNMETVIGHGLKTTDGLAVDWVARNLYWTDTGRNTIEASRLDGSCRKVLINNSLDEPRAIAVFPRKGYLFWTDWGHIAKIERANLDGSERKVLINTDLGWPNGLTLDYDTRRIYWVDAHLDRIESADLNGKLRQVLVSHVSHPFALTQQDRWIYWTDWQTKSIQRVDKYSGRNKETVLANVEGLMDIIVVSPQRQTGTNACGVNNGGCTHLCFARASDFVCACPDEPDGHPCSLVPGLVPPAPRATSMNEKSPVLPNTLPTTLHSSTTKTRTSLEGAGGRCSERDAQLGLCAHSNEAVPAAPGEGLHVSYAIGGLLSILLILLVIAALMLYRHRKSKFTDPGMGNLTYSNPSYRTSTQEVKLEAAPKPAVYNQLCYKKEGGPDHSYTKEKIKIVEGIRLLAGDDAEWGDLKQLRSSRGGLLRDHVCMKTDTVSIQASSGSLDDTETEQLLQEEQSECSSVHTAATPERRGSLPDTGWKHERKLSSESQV

fold higher affinity of Agrin B8 than of Agrin B0 [fold] | EC50 [nM] | fold increase of binding with calcium against without calcium [fold] | Substance
100 | – | – | 50 kd C-terminal fragment of Agrin B0 (domain or fragment)
– | 6 | 20 | 50 kd C-terminal fragment of Agrin B8 (domain or fragment)
